The chains are these.
B1: PLAGL1 (parent)
chain: LELGSTEVLLDHLKAHAEEKPPSG
B2: LOXL2 (parent)
chain: HISSCKLGPQVSLDPMKNVTCENG
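Also: lentivirally expressed fusions sorted by FACS into six bins by GFP to DsRed ratio, PSI derived from sequencing read proportions per bin multiplied by bin number.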

Variants of B1 are the subject of one data set. Put plainly: protein stability index of a GFP-peptide fusion (GPS, HEK-293T) (PSI 1-6); higher = more stable. The following applies: c terminus: a fixed tail appended.
Consider LELGSTEVLLDHLKAHAEEKPWSG [P22W], for which the protein stability index was found to be 3.38.
Same read-out and setting: with LELGSTEVLLDHLKAHAEEKYPSG [P21Y] the figure was 3.39.
On the same count and under the same terms, the figure for LELGSTEVLLDHLKAHAEEKQPSG [P21Q] is 4.84; for LELGSTEVLLDHLKAHAEEKWPSG [P21W] it is 3.53; for LELGSTEVLLDHLKAHAEEKKPSG [P21K] it is 5.04.
As to LELGSTEVLLDHLKAHAEEKAPSG [P21A], the protein stability index was determined as 4.8.
The same measure, in the same setting: the figure for LELGSTEVLLDHLKAHAEEKLPSG [P21L] is 3.6.
For LELGSTEVLLDHLKAHAEEKSPSG [P21S], the protein stability index was found to be 4.53.
On to LELGSTEVLLDHLKAHAEEKNPSG [P21N], for which the protein stability index stood at 4.85.
For LELGSTEVLLDHLKAHAEEKDPSG [P21D], the protein stability index was determined as 4.92.
With LELGSTEVLLDHLKAHAEEKVPSG [P21V], the protein stability index was determined as 4.41.
On the same count and under the same terms, the figure for LELGSTEVLLDHLKAHAEEKCPSG [P21C] is 3.55; for LELGSTEVLLDHLKAHAEEKMPSG [P21M] it is 4.4.
Still for that read-out and setting: the figure for LELGSTEVLLDHLKAHAEEKEPSG [P21E] is 5.38.
For the variant LELGSTEVLLDHLKAHAEEKHPSG [P21H], the protein stability index is 4.57.
Same read-out and setting: with LELGSTEVLLDHLKAHAEEKIPSG [P21I] the figure was 4.22; with LELGSTEVLLDHLKAHAEEKFPSG [P21F], 3.72.
For LELGSTEVLLDHLKAHAEEKGPSG [P21G], the protein stability index is 4.45.
Same read-out and setting: with LELGSTEVLLDHLKAHAEEKRPSG [P21R] the figure was 4.47; with LELGSTEVLLDHLKAHAEEKTPSG [P21T], 4.56.

Variants of B2 are the subject of a further data set. The data set is described as above. The following applies: c terminus: a fixed tail appended.
For EISSCKLGPQVSLDPMKNVTCENG [H1E], the protein stability index is 3.96.
Take KISSCKLGPQVSLDPMKNVTCENG [H1K]: the protein stability index was determined as 4.22.
On the same count and under the same terms, the figure for SISSCKLGPQVSLDPMKNVTCENG [H1S] is 4.14; for RISSCKLGPQVSLDPMKNVTCENG [H1R] it is 3.95; for GISSCKLGPQVSLDPMKNVTCENG [H1G] it is 4.46.
The same measure, in the same setting: the figure for PISSCKLGPQVSLDPMKNVTCENG [H1P] is 4.33; for DISSCKLGPQVSLDPMKNVTCENG [H1D] it is 4.33.
As to NISSCKLGPQVSLDPMKNVTCENG [H1N], the protein stability index is 4.52.
Take TISSCKLGPQVSLDPMKNVTCENG [H1T]: the protein stability index stood at 4.07.
The same measure, in the same setting: with VISSCKLGPQVSLDPMKNVTCENG [H1V] the figure was 3.72; with IISSCKLGPQVSLDPMKNVTCENG [H1I], 2.63; with FISSCKLGPQVSLDPMKNVTCENG [H1F], 2.01.
Take LISSCKLGPQVSLDPMKNVTCENG [H1L]: the protein stability index is 3.29.
As to QISSCKLGPQVSLDPMKNVTCENG [H1Q], the protein stability index was found to be 3.95.
The same measure, in the same setting: the figure for AISSCKLGPQVSLDPMKNVTCENG [H1A] is 3.87; for WISSCKLGPQVSLDPMKNVTCENG [H1W] it is 3.42.
With MISSCKLGPQVSLDPMKNVTCENG [H1M], the protein stability index is 3.95.
Still for that read-out and setting: the figure for YISSCKLGPQVSLDPMKNVTCENG [H1Y] is 2.46; for CISSCKLGPQVSLDPMKNVTCENG [H1C] it is 3.73.
For the variant HIPSCKLGPQVSLDPMKNVTCENG [S3P], the protein stability index worked out at 3.99.
Regarding HITSCKLGPQVSLDPMKNVTCENG [S3T], the protein stability index was 3.59.
Consider HILSCKLGPQVSLDPMKNVTCENG [S3L], for which the protein stability index was found to be 3.19.
Same read-out and setting: with HIRSCKLGPQVSLDPMKNVTCENG [S3R] the figure was 3.48.
Regarding HIASCKLGPQVSLDPMKNVTCENG [S3A], the protein stability index stood at 3.69.
The same measure, in the same setting: with HIDSCKLGPQVSLDPMKNVTCENG [S3D] the figure was 4.39; with HIESCKLGPQVSLDPMKNVTCENG [S3E], 4.24; with HIFSCKLGPQVSLDPMKNVTCENG [S3F], 2.94.
The same measure, in the same setting: the figure for HIWSCKLGPQVSLDPMKNVTCENG [S3W] is 3.14.
For the variant HIYSCKLGPQVSLDPMKNVTCENG [S3Y], the protein stability index is 2.62.
Same read-out and setting: with HIHSCKLGPQVSLDPMKNVTCENG [S3H] the figure was 3.51; with HIMSCKLGPQVSLDPMKNVTCENG [S3M], 3.3; with HICSCKLGPQVSLDPMKNVTCENG [S3C], 2.78.
The same measure, in the same setting: the figure for HIVSCKLGPQVSLDPMKNVTCENG [S3V] is 3.12; for HIGSCKLGPQVSLDPMKNVTCENG [S3G] it is 4.2; for HIQSCKLGPQVSLDPMKNVTCENG [S3Q] it is 3.92.
Take HIKSCKLGPQVSLDPMKNVTCENG [S3K]: the protein stability index was 4.01.
On the same count and under the same terms, the figure for HINSCKLGPQVSLDPMKNVTCENG [S3N] is 4.24.
With HIISCKLGPQVSLDPMKNVTCENG [S3I], the protein stability index came out at 3.39.
Take HISHCKLGPQVSLDPMKNVTCENG [S4H]: the protein stability index was 3.98.
For HISCCKLGPQVSLDPMKNVTCENG [S4C], the protein stability index came out at 3.78.
Same read-out and setting: with HISQCKLGPQVSLDPMKNVTCENG [S4Q] the figure was 3.69.
In the case of HISICKLGPQVSLDPMKNVTCENG [S4I], the protein stability index amounted to 3.02.
The same measure, in the same setting: with HISDCKLGPQVSLDPMKNVTCENG [S4D] the figure was 3.61; with HISFCKLGPQVSLDPMKNVTCENG [S4F], 3.34; with HISTCKLGPQVSLDPMKNVTCENG [S4T], 3.65.
The same measure, in the same setting: the figure for HISRCKLGPQVSLDPMKNVTCENG [S4R] is 3.52; for HISGCKLGPQVSLDPMKNVTCENG [S4G] it is 3.79.
For HISNCKLGPQVSLDPMKNVTCENG [S4N], the protein stability index amounted to 3.47.
Same read-out and setting: the figure for HISMCKLGPQVSLDPMKNVTCENG [S4M] is 3.94; for HISKCKLGPQVSLDPMKNVTCENG [S4K] it is 3.96; for HISPCKLGPQVSLDPMKNVTCENG [S4P] it is 4.22.
Regarding HISECKLGPQVSLDPMKNVTCENG [S4E], the protein stability index was 4.37.
Turning to HISVCKLGPQVSLDPMKNVTCENG [S4V], the protein stability index amounted to 3.91.
On the same count and under the same terms, with HISACKLGPQVSLDPMKNVTCENG [S4A] the figure was 3.65; with HISLCKLGPQVSLDPMKNVTCENG [S4L], 3.6.
The same measure, in the same setting: the figure for HMSSCKLGPQVSLDPMKNVTCENG [I2M] is 4.41; for HFSSCKLGPQVSLDPMKNVTCENG [I2F] it is 3.58; for HVSSCKLGPQVSLDPMKNVTCENG [I2V] it is 4.21.
On the same count and under the same terms, the figure for HPSSCKLGPQVSLDPMKNVTCENG [I2P] is 3.76; for HDSSCKLGPQVSLDPMKNVTCENG [I2D] it is 4.58; for HCSSCKLGPQVSLDPMKNVTCENG [I2C] it is 3.44.
For HHSSCKLGPQVSLDPMKNVTCENG [I2H], the protein stability index came out at 3.53.
For the variant HLSSCKLGPQVSLDPMKNVTCENG [I2L], the protein stability index came to 4.24.
Still for that read-out and setting: with HWSSCKLGPQVSLDPMKNVTCENG [I2W] the figure was 3.31; with HNSSCKLGPQVSLDPMKNVTCENG [I2N], 3.76; with HGSSCKLGPQVSLDPMKNVTCENG [I2G], 4.53.
For HKSSCKLGPQVSLDPMKNVTCENG [I2K], the protein stability index is 3.4.
On the same count and under the same terms, with HTSSCKLGPQVSLDPMKNVTCENG [I2T] the figure was 4.54; with HYSSCKLGPQVSLDPMKNVTCENG [I2Y], 3.61.
Same read-out and setting: the figure for HQSSCKLGPQVSLDPMKNVTCENG [I2Q] is 4.25; for HASSCKLGPQVSLDPMKNVTCENG [I2A] it is 4.35; for HESSCKLGPQVSLDPMKNVTCENG [I2E] it is 4.48.
Same read-out and setting: with HRSSCKLGPQVSLDPMKNVTCENG [I2R] the figure was 4.11; with HSSSCKLGPQVSLDPMKNVTCENG [I2S], 4.34.
